Measurements taken from patent US20240132615A1 (ICHNOS SCIENCES, published 2024).

molecular target: T1, Biotinylated Human CD38 Protein, Avitag, His Tag (Acrobiosystems CD8-H82E7) (human, UniProt P28907 43-300, biotinylated); assay: SPR, Fab as analyte, immobilised biotinylated human CD38;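 note: biacore T200 at 25 °C, single-cycle kinetics with Fab from 7.8 to 2000 nM, 3 min association then 5 min dissociation, fitted with a 1:1 Langmuir model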
T1 construct: bought protein; also called biotinylated recombinant human CD38 protein; human CD38-avi-his

| Binder | Kd |
| --- | --- |
| Anti-CD38-UCP02-B1 Fab (Fab, V domains shown, Fab) VH: QVQLVQSGAEVKKPGSSVKVSCKASGGQFSFYAINWVRQAPGQGLEWMGEIIPDYGVTHYAQKFQGRVTITADESTSTAYMELSSLRSEDTAVYYCARWSYTYGIRYYYKLFDPWGQGTLVTVSS VL: not shown | 595 nM |
| Anti-CD38-UCP02-A7 Fab (Fab, V domains shown, Fab) VH: EVQLLESGGGLVQPGGSLRLSCAASGFTFSFYDMSWVRQAPGKGLEWVSTITLHGGDTYYADSVKGRFTISRDNSKNTLYLQMNSLRAEDTAVYYCARDPSYIYSTSGYFDYWGQGTLVTVSS VL: not shown | 71.1 nM |

molecular target: T2, human CD3 on cells (HPB-ALL cells, primary human T cells) (human, UniProt P07766 23-207); assay: flow cytometry, HPB-ALL WT;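 note: binding read by flow cytometry as PE geometric mean fluorescence intensity on live single cells, dead cells excluded with SYTOX Green, only samples with at least 200 gated cells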
T2 construct: whole, on cells; only the epsilon chain is written
T2 sequence (P07766 23-207): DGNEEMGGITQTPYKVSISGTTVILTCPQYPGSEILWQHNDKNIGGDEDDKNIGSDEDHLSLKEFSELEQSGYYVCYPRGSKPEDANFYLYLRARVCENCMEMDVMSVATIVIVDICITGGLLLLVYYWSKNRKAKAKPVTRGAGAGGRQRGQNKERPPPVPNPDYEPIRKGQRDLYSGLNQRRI

| Binder | binding result |
| --- | --- |
| Anti-CD3-UCP03-E2 IgG1LALA (antibody, V domains shown, IgG1 LALA) VH: EVQLVESGGGLIQPGGSLRLSCAASGISVGNNYMSWVRQAPGKGLEWVSVIYPNGRIKYADSVKGRFTISRDNSKNTLYLQMNSLRAEDTAVYYCARGVIDGSYLDFAYWGQGTLVTVSS VL: not shown | no binding (tested: 800 nM) |
| Anti-CD3-UCP07-A1 IgG1LALA (antibody, V domains shown, IgG1 LALA) VH: EVQLVESGGGLVKPGGSLRLSCAASGFTFSDYAVNWVRQAPGKGLEWVGRIKSKNEGGTGYAAPVKGRFTISRDDSKNTLYLQMNSLKTEDTAVYYCAREPSYYRDGAADYWGQGTLVTVSS VL: not shown | no binding (tested: 800 nM) |
| Anti-CD3-UCP07-B3 IgG1LALA (antibody, V domains shown, IgG1 LALA) VH: EVQLVESGGGLVKPGGSLRLSCAASGFDFNAAWMTWVRQAPGKGLEWVGRIKSEKNGGKSVYAAPVKGRFTISRDDSKNTLYLQMNSLKTEDTAVYYCARGGRLSSYFDPWGQGTLVTVSS VL: not shown | no binding (tested: 800 nM) |
| Anti-CD3-UCP03-A3 IgG1LALA (antibody, V domains shown, IgG1 LALA) VH: EVQLLESGGGLVQPGGSLRLSCAASGFTFSSNAMSWVRQAPGKGLEWVSAVGKYGGATSYADSVKGRFTISRDNSKNTLYLQMNSLRAEDTAVYYCARGGPGYSTFYEFDNWGQGTLVTVSS VL: not shown | no binding (tested: 800 nM) |
| Anti-CD3-UCP07-E1 IgG1LALA (antibody, V domains shown, IgG1 LALA) VH: EVQLLESGGGLVQPGGSLRLSCAASGFTFSRNAMNWVRQAPGKGLEWVSSISRIGGFTIYADSVKGRFTISRDNSKNTLYLQMNSLRAEDTAVYYCARVGSGGKAFDVWGQGTLVTVSS VL: not shown | no binding (tested: 800 nM) |
| Anti-CD3-UCP03-G2 IgG1LALA (antibody, V domains shown, IgG1 LALA) VH: QVQLVQSGAEVKKPGSSVKVSCKASGYGFNLYAINWVRQAPGQGLEWMGRIIPEYGHTRYAQKFQGRVTITADESTSTAYMELSSLRSEDTAVYYCARDRYSTYSGGMDYWGQGTLVTVSS VL: not shown | no binding (tested: 800 nM) |
| Anti-CD3-UCP05-C1 IgG1LALA (antibody, V domains shown, IgG1 LALA) VH: QVQLVQSGAEVKKPGSSVKVSCKASGGRFSRQALTWVRQAPGQGLEWMGGIIPDHGRPIYAQKFQGRVTITADESTSTAYMELSSLRSEDTAVYYCARGKGGSVAGWKFDVWGQGTLVTVSS VL: not shown | no binding (tested: 800 nM) |
| Anti-CD3-UCP05-F1 IgG1LALA (antibody, V domains shown, IgG1 LALA) VH: EVQLLESGGGLVQPGGSLRLSCAASGFTFRHYAMTWVRQAPGKGLEWVSAITQRGGYTYYADSVKGRFTISRDNSKNTLYLQMNSLRAEDTAVYYCARAGPSGGGFDYWGQGTLVTVSS VL: not shown | no binding (tested: 800 nM) |
| Anti-CD3-UCP05-A2 IgG1LALA (antibody, V domains shown, IgG1 LALA) VH: EVQLLESGGGLVQPGGSLRLSCAASGFSFKIYAMGWVRQAPGKGLEWVSAITQQGGATVYADSVKGRFTISRDNSKNTLYLQMNSLRAEDTAVYYCARPGDLGGGFDIWGQGTLVTVSS VL: not shown | no binding (tested: 800 nM) |
| Anti-CD3-UCP07-D1 IgG1LALA (antibody, V domains shown, IgG1 LALA) VH: EVQLLESGGGLVQPGGSLRLSCAASGFNFNINVMSWVRQAPGKGLEWVSAISQSGGYTLYADSVKGRFTISRDNSKNTLYLQMNSLRAEDTAVYYCARASPYGGGFDYWGQGTLVTVSS VL: not shown | no binding (tested: 800 nM) |
| Anti-CD3-UCP07-A3 IgG1LALA (antibody, V domains shown, IgG1 LALA) VH: EVQLLESGGGLVQPGGSLRLSCAASGVSFREYVMAWVRQAPGKGLEWVSVISQYGGNTYYADSVKGRFTISRDNSKNTLYLQMNSLRAEDTAVYYCARSGGSVPFDYWGQGTLVTVSS VL: not shown | no binding (tested: 800 nM) |
| Anti-CD3-UCP03-F2 IgG1LALA (antibody, V domains shown, IgG1 LALA) VH: EVQLLESGGGLVQPGGSLRLSCAASGFAFSHYAMTWVRQAPGKGLELVSAISQHGGYTAYADSVKGRFTISRDNSKNTLYLQMNSLRAEDTAVYYCARGHPVHAFDFWGQGTLVTVSS VL: not shown | no binding (tested: 800 nM) |
| Anti-CD3-UCP03-C1 IgG1LALA (antibody, V domains shown, IgG1 LALA) VH: EVQLLESGGGLVQPGGSLRLSCAASGFTFSQYAMSWVRQAPGKGLEWVSVISPSGATAVYADSVKGRFTISRDNSKNTLYLQMNSLRAEDTAVYYCARGQYDDLDKSGYEFDHWGQGTLVTVSS VL: not shown | no binding (tested: 800 nM) |
| Anti-CD3-UCP05-A1 IgG1LALA (antibody, V domains shown, IgG1 LALA) VH: EVQLLESGGGLVQPGGSLRLSCAASGFTFSTYAMSWVRQAPGKGLELVSAISRHGGFSRYADSVKGRFTISRDNSKNTLYLQMNSLRAEDTAVYYCARASSYGYDPWGQGTLVTVSS VL: not shown | no binding (tested: 800 nM) |
| Anti-CD3-UCP05-H1 IgG1LALA (antibody, V domains shown, IgG1 LALA) VH: EVQLLESGGGLVQPGGSLRLSCAASGFAFSNSAMSWVRQAPGKGLELVSAISTKGGKTLYADSVKGRFTISRDNSKNTLYLQMNSLRAEDTAVYYCARSSPYGFDYWGQGTLVTVSS VL: not shown | no binding (tested: 800 nM) |
| Anti-CD3-UCP03-B1 IgG1LALA (antibody, V domains shown, IgG1 LALA) VH: EVQLLESGGGLVQPGGSLRLSCAASGFTFSRYAMTWVRQAPGKGLEWVSGISKYGGATAYADSVKGRFTISRDNSKNTLYLQMNSLRAEDTAVYYCARGGTRFDIWGQGTLVTVSS VL: not shown | no binding (tested: 800 nM) |
| Anti-CD3-UCP05-H2 IgG1LALA (antibody, V domains shown, IgG1 LALA) VH: QVQLVQSGAEVKKPGSSVKVSCKASGGGFSHYALNWVRQAPGQGLEWMGGIIPLTGKTAYAQKFQGRVTITADESTSTAYMELSSLRSEDTAVYYCARKISSARDYWGQGTLVTVSS VL: not shown | no binding (tested: 800 nM) |
| Anti-CD3-UCP05-G2 IgG1LALA (antibody, V domains shown, IgG1 LALA) VH: QVQLVQSGAEVKKPGSSVKVSCKASGGVFNFYAISWVRQAPGQGLEWMGGITPDGGFVKYAQKFQGRVTITADESTSTAYMELSSLRSEDTAVYYCARSPVSLYYGKYYVYYGAFDVWGQGTLVTVSS VL: not shown | no binding (tested: 800 nM) |
| Anti-CD3-UCP03-H2 IgG1LALA (antibody, V domains shown, IgG1 LALA) VH: EVQLVESGGGLIQPGGSLRLSCAASGFTVRDSYMHWVRQAPGKGLEWVSIIYYTGKTHYADSVKGRFTISRDNSKNTLYLQMNSLRAEDTAVYYCARSQYGYFDYWGQGTLVTVSS VL: not shown | no binding (tested: 800 nM) |
| Anti-CD3-UCP02-D2 IgG1LALA (antibody, V domains shown, IgG1 LALA) VH: EVQLVESGGGLVKPGGSLRLSCAASGFTFNKAWMGWVRQAPGKGLEWVGRIKSVTDGGITVYAAPVKGRFTISRDDSKNTLYLQMNSLKTEDTAVYYCARVTARYYYFDNWGQGTLVTVSS VL: not shown | no binding (tested: 800 nM) |
| Anti-CD3-UCP07-C3 IgG1LALA (antibody, V domains shown, IgG1 LALA) VH: QVQLVQSGAEVKKPGSSVKVSCKASGGSFSRYAIGWVRQAPGQGLEWMGGIIPDVGIAFYAQKFQGRVTITADESTSTAYMELSSLRSEDTAVYYCAREYHYVGAFDIWGQGTLVTVSS VL: not shown | no binding (tested: 800 nM) |
| Anti-CD3-UCP03-C5 IgG1LALA (antibody, V domains shown, IgG1 LALA) VH: EVQLVESGGGLIQPGGSLRLSCAASGFTVSDNDMSWVRQAPGKGLEWVSLIYSNGGTHYADSVKGRFTISRDNSKNTLYLQMNSLRAEDTAVYYCARWGISLGEPYFDYWGQGTLVTVSS VL: not shown | no binding (tested: 800 nM) |
| Anti-CD3-UCP07-F2 IgG1LALA (antibody, V domains shown, IgG1 LALA) VH: QVQLVQSGAEVKKPGSSVKVSCKASGGKFNKYVIGWVRQAPGQGLEWMGGVIPLKGQSKYAQKFQGRVTITADESTSTAYMELSSLRSEDTAVYYCARGRYYGDYSWKFDYWGQGTLVTVSS VL: not shown | no binding (tested: 800 nM) |
| Anti-CD3-UCP02-B2 IgG1LALA (antibody, V domains shown, IgG1 LALA) VH: EVQLLESGGGLVQPGGSLRLSCAASGFTFSHYVLNWVRQAPGKGLEWVSGISLTGIATIYADSVKGRFTISRDNSKNTLYLQMNSLRAEDTAVYYCARGDPTSAFDVWGQGTLVTVSS VL: not shown | no binding (tested: 800 nM) |
| Anti-CD3-UCP02-A3 IgG1LALA (antibody, V domains shown, IgG1 LALA) VH: EVQLVESGGGLIQPGGSLRLSCAASGFTFRRYYMTWVRQAPGKGLEWVSVIFPQGGTSYADSVKGRFTISRDNSKNTLYLQMNSLRAEDTAVYYCARVHDVLDDVEWFDHWGQGTLVTVSS VL: not shown | no binding (tested: 800 nM) |
| Anti-CD3-UCP07-E2 IgG1LALA (antibody, V domains shown, IgG1 LALA) VH: EVQLLESGGGLVQPGGSLRLSCAASGFPFSNYAMSWVRQAPGKGLEWVSAISRKGGFTEYADSVKGRFTISRDNSKNTLYLQMNSLRAEDTAVYYCARASYLGGFAYWGQGTLVTVSS VL: not shown | no binding (tested: 800 nM) |
| Anti-CD3-UCP03-F1 IgG1LALA (antibody, V domains shown, IgG1 LALA) VH: EVQLLESGGGLVQPGGSLRLSCAASGFPFSHHVMTWVRQAPGKGLEWVSAITQRGEYTLYADSVKGRFTISRDNSKNTLYLQMNSLRAEDTAVYYCARGPVPGGDHAFDYWGQGTLVTVSS VL: not shown | no binding (tested: 800 nM) |
| Anti-CD3-UCP06-A1 IgG1LALA (antibody, V domains shown, IgG1 LALA) VH: QVQLVQSGAEVKKPGSSVKVSCKASGGHFRGYGISWVRQAPGQGLEWMGEIIPLRGFTIYAQKFQGRVTITADESTSTAYMELSSLRSEDTAVYYCARGSYVDSSYYYYDGFDVWGQGTLVTVSS VL: not shown | no binding (tested: 800 nM) |
| Anti-CD3-UCP05-D2 IgG1LALA (antibody, V domains shown, IgG1 LALA) VH: EVQLLESGGGLVQPGGSLRLSCAASGFTFNIYALGWVRQAPGKGLEWVSAISQNGGYTLYADSVKGRFTISRDNSKNTLYLQMNSLRAEDTAVYYCARLRGGSGMDVWGQGTLVTVSS VL: not shown | no binding (tested: 800 nM) |
